Experiment: soluble fraction after stress (log2 fold change); higher = more stays soluble; pooled small domains, quantitative proteomics
Settings: stress: 50 degC
Method in brief: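 Custom libraries of small protein domains were pooled and measured in a high-throughput format, with quantitative proteomics as the read-out. Each library was stressed at 50°C. The value is the log2 fold change in the amount of each protein that stays soluble after stress, used as a measure of aggregation propensity; higher values mean more of the protein stays soluble.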

Sequence	soluble fraction (log2)
HMHAQDTLMTRAGETRTVKILEIGLEEIKYRIWGLDDSPVIVIDKIDVKQIVFSNGEKMTIVQ	-1.44
HMHDLTERQREILQTLASGKMALREILSILSQPPSLRTLRDELYHLKRIGLVDTMGYGRGATWFLTQ	-0.103
HMHDNPLSAQEQRVLDLIAAGKTSKEIASQLFLSDGTVRNYTTSIFNKLNANNRVEAINIAQENGW	0.486
HMHDPRLPLPGTLLAREFQGRDIVVKVLDNGFEFDGRRYKSLSAIAQEVTGSKWNGFLFFGI	-0.857
HMHDWDITTAAKPEKIFELFSDIPVLETGLKHGTVTLLIDHEPYEVTTFRVDGNYTDGRHPDSVAFT	-0.0484
HMHGESIPIPNILHKRYADAEQIVNNLRLEIEVTDTGYVRSLPPGAILEQTPGPGERVKSGHIIYVTINAA	-0.291
HMHGETLAAKRREEIKVRIQNIYDQSEQIFGYRKITATLRSQGVVVSEKLVSQLMRELEISSVS	-3.87
HMHGSSVEIPNIYGLPASEAVQLLDKADLRYEVIDSVYTTEVPKGAVYDLSPKAGSRVKAGRIIFLTLNA	-0.756
HMHGSTAVVPQIKNMPYSEASVRLGANGLAIEINDSVYDRDMPPGTVIESWPKAGAVVKQGRQVYVTVTA	-0.221
HMHHGALKQALLDETARILAEEGESALSLRRLASNLGVSRTAPYNHFDNKDALLSAVAEEGFRR	-0.032
HMHIELNDTQKRILNFLSDDPNLSAVRLAEQLGISSRNVEKNIKKLKEYGILIRHGSPKNGYWEIVV	0.0335
HMHITSFTIKQADQIVGTTPVREQAVGAAKARAQQTGTPVSVIAYLDTGEEREVIIHPDGTN	0.324
HMHKLTSRQEEILQFIKDYLSEIGYPPTRSEIAQKMGFRSTNAAEEHLRALARKGAIEILPGPSRGLRLP	-0.455
HMHKTEIKIPSREDILAVLRQAQAPLTREQVFEHLKLTEDQIPIIEKRLNAMERDGQLMPNRKGMLLLSTK	0.266
HMHKYEYESLNHVNVGSNLKYISTHFGQPKLIKKSKYHENLNFAYYLEKKFILTLILEGDRVNAYTITG	0.0565
HMHLEKGEVVVPDLKGLTMRQVGELLGKLNLRYSFSGTGLAVKQFPESGQIVNQGDIIEVIF	-0.138
HMHLLPAREQVAAYLRKAILRQEIREGTILNLADTARQMGVSVTPVREALQLLAAQGLVRLRPNKGAVVMG	-0.891
HMHLNVYRDEDEAMLAFKDHLIGTHQPIRVRVEKALPDGTMGHKIVDTTIGRIVFNHNIPQD	-0.189
HMHLTEAPLIKITYFEADQKKSGGQYITIINHLKKINEYENLLVLENGVKINIDDIYELESV	-0.132
HMHMNFGEILQTKRKEKGFTQEELAHQLLVSSKTISNWETNKTTPDIDNVIRISQLFDISLNQLLLE	-0.379
HMHMSKKLADSIISLRRKHGFSQEQLAEKIGVTRQAISNWERGTATPDVETLNLIAKLFDMDLLAIINGE	0.0766
HMHNLYAPTQKEVDHARRVVEAAEAAAREGLGVVSLNGKMVDGPVIDRARLVLSRAELSGIRE	0.072
HMHNNTITLNKKTYVYTASGKKMSKYLGYTYINKGTTLNYYGTKNIKGKTFYYIGDHAYVNAANVGKVTN	-1.92
HMHNQIGDKIRELRTRSNLTQADLGKLVGVSMQAVSKWERGGTPDIDVLLSVAKYFNISLDEMVGRT	-1.08
HMHPEITLHPVRANIYSISVKNATSMEIYSVSGQLVGIRELKEGTNTLDLTGYINGVYIVNLQNKAFKLVK	-1.94
HMHPELSDSQRTLIALMASGLKDEAIAVEMGVGARTVRRKVQELYELLGVRTRFQAGVAANQRGW	-1.79

Sequence	soluble fraction (log2)
HMHPKDVPTRRELEVLQAVSEGLSTAEIGLRLDITENTVETFRRRLIQKFDAKNAIDLVVKAMAQGWIKV	-1.16
HMHQGTIEVGSIVHIEGQKALGTILSLTQREAIVGLGALKTTIPLKRLHLATEAEARRHKKSVTPQEAV	0.0611
HMHQIFAETVFEDIAFGPRNKGFNEEEVAKQVREAMAFVGLDYDTYAQRSPFQLSGGQMRRVAIAGVVA	-0.0418
HMHQKYIITGTRDTYVVSQGETLRTIAEHVYGSRGYARYIIEHNHITHPDDIPVGLTIRLPELELNPDYR	-0.525
HMHRAKRTKAQTQSSLESIEGIGPKTRKQLLVHFGGLAEVKAASVSELQKVKGISLDKAQKIYDFFHGS	0.00473
HMHRNLSFEEEKEFLSAYTKQAEAGQIVDLNEMKAAYIEKVGHSIGGSQIYRMLERHGWRKVM	-0.312
HMHSDSEIEKGYTDDGQKLSNVNGVYMTKSEMYNKGIVEKDPNTGEEVMGRNRVNPVTGELE	0.164
HMHSDWITWWYLKDKRFDDDYSLWDRQPVHPEYFEVVKEFKAPPESNPGGLDEVKRILRTYIPDAFAP	-0.976
HMHSESAAHQRTSVELFARIPETGNLQSAQRHFDVINQFGRFPHRNKILQRPSSEQEEAFLRQPGSG	0.0792
HMHSILDDIPTVGPARRKALMRRYESLEAIRQATVDELKELPEINEASAEAIVSFFAGQAKEG	-0.0626
HMHSRTWTSADGVKTFEGELQSYDAASGKVSVILPNHKRITFKQEKLSADDIAWLEKNGNRP	0.102
HMHTGLTNYEYKQIKSSLLKILTQSESMRLGELVDKVDQFESEKVTTVIRFLVGNEELMLFDDTLTLKKQL	0.0246
HMHTTIIVASRDIAAGSVLTSHDLSSVAWVGGAVPKGSYTAADLAVGKTAFTAFQQGEPILESRLAS	-0.00332
HMHVVVIDKQGALSYQGKAITLLDLKNIVIDVPKETPFLIKADKDIHLQSFVEVLDLIKTAGFKKVSLQ	-0.182
HMIAANMTISQRIAAALAEYGVMSVKDIAQEVLGATDKKDTEKIRVTLTRDHGKRFRTYSDGTWSLKDWRP	-1.12
HMIAAVIAQVANTNERIILEKRYLSFKSWDEIAVEMRISPRWAYTLHERALKAVDQVLSKQNNE	-4.07
HMIADDLKSLEGVDQDMLRDLAEAGINTRDDLAELAIDELIEITGVSTEEAEKVIMAARAHWFEEES	0.463
HMIAKEDDGTAFLIDGKISSEEEFKTISKDDILEVFVYKETEIAQKKLDSINSINNTYYTSLIEILLKE	-0.127
HMIAKIEGQISYVGNRFLIVDVSGVGYKLFVTNEAISLSKVEESIKLWVHTAVRENSIDLYG	-0.7
HMIANDDEIRKVVLEVIEEQPKAVEDVKNGRDRILDFLVGQVMKKTRGKANPSLASNLMKEEIEK	0.177
HMIANNFDEFVEKVSEAERKALNMPAGQEMTQKLLEMKLAANPNLTPEEWQRTKSEFMTFLFAVFVRE	-0.842
HMIAVLEEGSHFRAVNDVTGKPFGPEMVIKNGQVTAVGKTISTKPKNLLGKKEGTKFVISGKQYVIKDI	-0.00494
HMIDAHTALLAKRLEAKGMLPLTDKSSAEEIYAEFGISKKAFKKALGALYKERLVRIGEDGVVWI	-1.27
HMIDFIGLEAKLLSTISGEKMGNAEVIVDGNVMNIYVKSLDTSEIKFRENVLIIKQSDDKNYYLVAKP	-0.453
HMIDIDTILKKYKPGRRDELIPLMQEIQEVYGHLSEEAVVKIGTYVGLSTTKIYGLATFYDQFRF	-1.24
HMIDLGKSRTWHSENGRAIEARVINISEEQQTVEMQRVDGLKFELSWNQLSKADQTLLAEAAKKTALVA	0.0711

Sequence	soluble fraction (log2)
HMIDLPDIDIDFAKRTGVLEHITHTPARLETGKQHNTGVYFTDIPRGVDGLATMDHKRAEQLGYFKLDML	0.0268
HMIDNKIIRSLRQKRNMTLEELAKKANISVSYLSEIELGKKQPSLETINKLSQALNISREGLI	-0.0409
HMIDPHGSLTLDLRPRDARVEIIDSNKTYKPGVRLPMGEYAIAVSRRGYISETKRINIEYGDNRERVAL	0.0829
HMIDSDENERIKELIKALISETLKSRGVSPEVISDIKERVDRLHNEELPRFAAELKELISRN	0.119
HMIDSEEVMETIQDLGYSPVFDVKEKFYKIKEEQIGKITLEVHIILRYGMVDLVWIVRENGELLLG	0.138
HMIDTLEYIISEESKGLRADQAITMVNGEFSRSLIQKWIKKGSILVNGKKIKPRDILNLNDKVTINPEEN	-0.0699
HMIEDMQQWIRQIREIVSNRLDLTRNISDDEIREVISDIVMEQSRQQYMSLNEKKTLMEGVFNSMR	-0.157
HMIEEIETQFLFDFGLIGHPNSAKIREKLSEALGIGYVNGKQLQKRLMMFGITKQQVVDVLTD	-4.94
HMIEMAGGYRKGDRVELHSLKGAAEHNGKQGTVVGPQGERVKVLLDDSDSKTLALKVTNLTKLESA	0.112
HMIEMGNRIRTLRKRRVGSQSEFAEKLDVSVVTISRIENGMTKIDAELLIKMSEVLQVPVNIILGM	-3.22
HMIENPGQTFERIAGKITRTLRTGPLRIQQLDLLFSESGEQVMDVLRAMAENGEILIKDDTIQWNGHN	-0.0388
HMIERKLRKKEHFIASVGEKVKIKNFATETYKGELISADNEKVVVETEFGKEEITYDNILAAATYFE	-0.135
HMIFNENLKSAREKKGLSQKEVAEAIGVAKSTYSLYESGNREPNVQTIKRIADVLNVSADVLLGL	0.00744
HMIGELVVEDLAAASEINVDTIRYYQRLGLLEPPRRRGRRAVYDHTHLERLAEIRRLAGAGFTLAQIGRLK	-2.53
HMIGILSDREAEILALLDEGLTNKAIGRRLNLAEPTVKFHLKNLYAKLGVGRRQLAVNVAKGSGLLNSD	-0.699
HMIGIRLKELVLKNQSAWVGLRVSELDISRKTMIVMIRRGDKMLIPNGSTILRSGDVLLLYTR	-0.452
HMIGITTANLNVRTGTDTNYTSIAILPKGTKVNILEENVKPGWYKIQFDEIYAFVSSKYIKIQS	-1.12
HMIGMDMQELIGRYKGDPDEMGKIELAAMSMLKLSEDMSSDHVLQKSKLRQDGLWLLKYVQE	-0.551
HMIHEQSLHKIRNFIGSLPESLRTAFTLREQDGLSYEEIGKITNTPIGTVRSRIYRARESILDHINQE	-0.874
HMIHIGAQEALGEFQDEEGNLTASKKEVVAALVKKSKEVSFPTSYEYEVAARMAADEYNDAGQRMA	-0.0641
HMIHKTDAINLGQRLLKSSLKEFDVSLKDIPNKTLMYILSEYKFNSLDDLYREIGLGNVIPKLVALRMAP	-0.423
HMIHTYVETRKVGNNDGLIRVDNKYYRVPQHLVGMKVQIQIDEATISVLQGGVMVATLDKTADVFNPQA	-0.782
HMIIDPQIRTLWTSQIIDILKSNPKRSIRSILELYPSNKESWVLIILQELIGEEKIIRDLDYLYFNK	-2.22
HMIIIMKMGADESQVQETIKRIKDLGFNTHLSKGENRTIIGVIGDVSSIDESDVERLRATPYIAEVVRVS	0.0267

From the domain aggregation screens of Martell et al. (2025)
